Columns and labels:
[1] = target: T1, Soluble heterodimeric CD3 protein (hCD3-epsilon/hCD3-delta) with either a human Fc tag (hFcΔAdp/hFc) or a … (human, UniProt P07766 23-126; P04234 22-105); assay: SPR Biacore 25C antigen-capture, 1-arm
T1 construct: also called hCD3ε/δ; not shown: Fc tag: human (hFcΔAdp/hFc)
Experimental: In the antigen-capture format, heterodimeric CD3 protein was captured using a rabbit anti-mouse Fc or mouse anti-human Fc and the respective antibodies were injected over the captured antigen.
(§1) Kinetic association (kₐ) and dissociation (kd) rate constants were determined by processing and fitting the data to a 1:1 binding model using Scrubber 2.0 curve fitting software. Binding dissociation equilibrium constants (KD) and dissociative half-lives (t₁₁₂) were calculated from the kinetic rate constants as: KD (M)=kd/kₐ; and t_{1/2} (min)=(ln 2/(60*kd). NT=not tested; NB=no binding observed.

[2] = target: T1, Soluble heterodimeric CD3 protein …; assay: SPR Biacore 25C antibody-capture, 1-arm
Experimental: (§2) Soluble heterodimeric CD3 protein (hCD3-epsilon/hCD3-delta; SEQ ID NOs:1652/1653) with either a human Fc tag (hFcΔAdp/hFc; SEQ ID NOs:1683/1684) or a mouse Fc tag (mFcΔAdp/mFc; SEQ ID NOs:1685/1686) was injected over the antibody captured surface and the binding response was recorded. Heterodimeric CD3 protein was purified using the method described in Davis et al. (US2010/0331527).
as §1

[3] = target: T1, Soluble heterodimeric CD3 protein …; assay: SPR Biacore 25C antigen-capture
Method in brief: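 Rate constants fitted to a 1:1 model, giving KD as kd/ka and dissociative half-life as ln2/(60·kd) minutes. Antibodies flowed over CD3ε/δ heterodimer captured on anti-human or anti-mouse Fc surfaces, run on a Biacore T200 at 25 °C.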

[4] = target: T1, Soluble heterodimeric CD3 protein …; assay: SPR Biacore 25C antibody-capture
Experimental: Measurements were conducted on a T200 Biacore™ instrument.
as §2, §1

T1 sequence (P07766 23-126 limits assumed, stated change not applied, chain 1 of 2): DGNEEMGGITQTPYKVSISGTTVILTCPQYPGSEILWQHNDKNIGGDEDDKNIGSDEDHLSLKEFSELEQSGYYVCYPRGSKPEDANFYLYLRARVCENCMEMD
T1 sequence (P04234 22-105 limits assumed, stated change not applied, chain 2 of 2): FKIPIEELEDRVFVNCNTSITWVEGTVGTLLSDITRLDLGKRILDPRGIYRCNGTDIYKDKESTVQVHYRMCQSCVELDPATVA

Row | Binder | Kd [1] | T½ [1] | koff [1] | kon [1] | Kd [2] | T½ [2] | koff [2] | kon [2] | Kd [3] | T½ [3] | koff [3] | kon [3] | Kd [4] | T½ [4] | koff [4] | kon [4]
1 | H1H7198P (monovalent 1-arm) (antibody, human IgG1, V domains shown, Monovalent 1-arm: second Fab removed, only the Fc portion (CH2-CH3) expressed; human IgG1 Fc; tied by numerical identifier; also called H1H7198B) VH: EVQLVESGGGLVQPGRSLRLSCAASGFTFADYTMHWVRQVPGKGLEWVSDISWNSGSKDYADSVKGRFTISRDNAKNFLYLQMNSLRAEDTALYYCVKYGSGYGKFYFYAMDVWGQGTTVTVSS VL: not shown | 0.112 nM | 163 min | 7.07e-05 s⁻¹ | 628000 M⁻¹ s⁻¹ | 6.02 nM | 73 min | 0.000158 s⁻¹ | 26300 M⁻¹ s⁻¹ |  |  |  |  |  |  |  | 
2 | H1H7226P (monovalent 1-arm) (antibody, human IgG1, V domains shown, Monovalent 1-arm: second Fab removed, only the Fc portion (CH2-CH3) expressed; human IgG1 Fc; tied by numerical identifier; also called H1H7226B) VH: EVQLVQSGGGLVQPGRSLRLSCAASGFTFSDYTMHWVRQGPGKGLEWVSDISWNSGSKGYTDSVKGRFTISRDNAKKSLYLQMNSLRAEDTALYYCVKDGSGYGKYHFYAMDVWGQGTLVTVSS VL: not shown | 0.565 nM | 49 min | 0.000236 s⁻¹ | 418000 M⁻¹ s⁻¹ | 27.2 nM | 33 min | 0.000355 s⁻¹ | 13000 M⁻¹ s⁻¹ |  |  |  |  |  |  |  | 
3 | H1H7242P (monovalent 1-arm) (antibody, human IgG1, V domains shown, Monovalent 1-arm: second Fab removed, only the Fc portion (CH2-CH3) expressed; human IgG1 Fc; tied by numerical identifier; also called H1H7242B) VH: EVQLVESGGGLVQPGRSLRLSCAASGFTFDDYTMHWVRQGPGKGLEWVSDIGWNSNSIGYADSVKGRFTISRDNAKNSLYLQMNSLRPEDTALYFCVKDKSGYGKFFIGLDVWGQGTMVTVSS VL: not shown | 2.63 nM | 11 min | 0.00101 s⁻¹ | 383000 M⁻¹ s⁻¹ | 30.9 nM | 17 min | 0.000664 s⁻¹ | 21500 M⁻¹ s⁻¹ |  |  |  |  |  |  |  | 
4 | H1H7233P (monovalent 1-arm) (antibody, human IgG1, V domains shown, Monovalent 1-arm: second Fab removed, only the Fc portion (CH2-CH3) expressed; human IgG1 Fc; tied by numerical identifier; also called H1H7233B) VH: EVQLVESGGGLVQPGGSLRLSCEASGFTFADYTLHWVRQAPGKGLEWVSDISWNSGTRGYADSVRGRFTISRDNAKKSLYLQMNSLRSEDTALYYCVKDGSGYGRYNFYAMDVWGQGTTVTVSS VL: not shown | 1.27 nM | 57 min | 0.000204 s⁻¹ | 161000 M⁻¹ s⁻¹ | 24.2 nM | 43 min | 0.000269 s⁻¹ | 11100 M⁻¹ s⁻¹ |  |  |  |  |  |  |  | 
5 | H1H7194P (monovalent 1-arm) (antibody, human IgG1, V domains shown, Monovalent 1-arm: second Fab removed, only the Fc portion (CH2-CH3) expressed; human IgG1 Fc; tied by numerical identifier; also called H1H7194B) VH: EVQLVESGGGLVQPGRSLRLSCAASGFTFGDYTMHWVRQAPGKGLEWVSDISWNSGSKDYADSVKGRFTISRDNAKNSLYLQMNSLRTEDTAFYYCAKDSRGYGLYYHLGLDVWGQGTTVTVSS VL: not shown | 0.241 nM | 137 min | 8.43e-05 s⁻¹ | 350000 M⁻¹ s⁻¹ | 13 nM | 76 min | 0.000151 s⁻¹ | 11600 M⁻¹ s⁻¹ |  |  |  |  |  |  |  | 
6 | H1H7195P (monovalent 1-arm) (antibody, human IgG1, V domains shown, Monovalent 1-arm: second Fab removed, only the Fc portion (CH2-CH3) expressed; human IgG1 Fc; tied by numerical identifier; also called H1H7195B) VH: EVQLVESGGGLVQPGRSLRLSCAASGFTFADYTMHWVRQAPGKGLEWVSDISWNSGSIAYADSVKGRFTISRDNAKNSLYLQMNSLRTEDTAFYYCAKDSRGYGHYKYLGLDVWGQGTTVTVSS VL: not shown | 0.126 nM | 162 min | 7.14e-05 s⁻¹ | 566000 M⁻¹ s⁻¹ | 3.16 nM | 117 min | 9.89e-05 s⁻¹ | 31300 M⁻¹ s⁻¹ |  |  |  |  |  |  |  | 

Results, then the binder that gave them:

Row | Kd [1] | T½ [1] | koff [1] | kon [1] | Kd [2] | T½ [2] | koff [2] | kon [2] | Kd [3] | T½ [3] | koff [3] | kon [3] | Kd [4] | T½ [4] | koff [4] | kon [4] | Binder
7 |  |  |  |  |  |  |  |  | 0.145 nM | 50 min | 0.000229 s⁻¹ | 1.58e+06 M⁻¹ s⁻¹ | 33.3 nM | 20 min | 0.000576 s⁻¹ | 17300 M⁻¹ s⁻¹ | H1H5795B (antibody, human IgG1, V domains shown, H1H: human IgG1 Fc; divalent) VH: EVQLVESGAEVKKPGASVKVSCKTSGYSFIGYYIHWMRQAPGQGLEWMGWINPKSGVTNYAQRFQGRVTMTRDTSISTAYMELSRLKSDDTAVYFCARMGDGAVFDFWGQGTLVTVSS VL: DIQLTQSPSSLSASVGDRVTITCRASQRISSFLNWYQQKPGKVPKLLIYTASNLQNGVPSRFSGTGSGTDFTLTISSLQPEDFATYYCQQSYRTPLTFGGGTKVDIKR
8 |  |  |  |  |  |  |  |  | 7.85 nM | 2 min | 0.00564 s⁻¹ | 718000 M⁻¹ s⁻¹ | 579 nM | 1 min | 0.00788 s⁻¹ | 13600 M⁻¹ s⁻¹ | H1H5799P (antibody, human IgG1, V domains shown, H1H: human IgG1 Fc; divalent) VH: QVQLVQSGAEVKKPGASVKVSCKASGYTFIGYYMHWVRQAPGQGLEWMGWINPKSGGTNYAQKFQGRVTMTGDTSISTAYMELSRLRSDDTAVFYCARMGDGAMFDYWGQGTLVTVSS VL: DIQMTQSPSSLSASVGDRVTITCRASQRISSYLNWYQQKAGKAPKVLIYTASSLQSGVPSRFSGSGSGTDFTLTISSLQPEDFATYYCQQSYSTPLTFGGGTKVEIK
9 | 0.498 nM | 48 min | 0.000238 s⁻¹ | 479000 M⁻¹ s⁻¹ | 18.3 nM | 43 min | 0.000267 s⁻¹ | 14600 M⁻¹ s⁻¹ |  |  |  |  |  |  |  |  | H1H7203P (monovalent 1-arm) (antibody, human IgG1, V domains shown, Monovalent 1-arm: second Fab removed, only the Fc portion (CH2-CH3) expressed; human IgG1 Fc; tied by numerical identifier; also called H1H7203B) VH: EVQLVQSGGGLVQPGRSLRLSCAASGFTFADYTMHWVRQTPGKGLEWVSGISWNSGSKDYADSVKGRFTISRDNAKNSLYLQMNSLRTEDTALYYCAKYGSGYGRYFFYAMDVWGQGTTVTVSS VL: not shown

Source: patent US20190127480A1 (Regeneron, published 2019)
